Experimental data: US20050196808A1 (published 2005)
Blank lines part the entries; values can stand above or below the molecule they belong to. Non-standard residues stand in square brackets, D forms with d. No end group written: not given here. pY = N[C@@H](Cc1ccc(OP(=O)(O)O)cc1)C(=O)O; pT = C[C@@H](OP(=O)(O)O)[C@H](N)C(=O)O

Experiments:
[1] = target: BRCTtide-7pS, GAAYDI-pS-…; experiment: ITC, peptide injected into 15 µM GST-(BRCT)2
[2] = target: BRCTtide-7pT, GAAYDI-pT-…; experiment: ITC, peptide injected into 15 µM GST-(BRCT)2
[3] = target: PoloBoxtide with phosphoserine substituted for phosphothreonine; experiment: ITC
[4] = target: PoloBoxtide with Asn substituted for Pro at pThr+1; experiment: ITC
[5] = target: PoloBoxtide-optimal, MAGPMQ-S-pT-P-LNGAKK; experiment: isothermal titration calorimetry (ITC), peptide injected into 15 µM PBD
[6] = target: Plk-1 Polo-box Domain (PBD, residues 326-603) (human) (UniProt P53350); experiment: isothermal titration calorimetry [table]
[7] = target: Plk-1 Polo-box Domain (PBD, residues 326-603) (human) (UniProt P53350); experiment: isothermal titration calorimetry
[8] = target: T1, Plk-1 Polo-box Domain (PBD, residues 326-603) (human, UniProt P53350 326-603); experiment: isothermal titration calorimetry [table]
T1 construct: also called Plk-1 PBD; Plk1 PBD
Experimental: (§1) Some peptides contained an additional tyrosine residue to facilitate concentration determination by optical absorbance. Calorimetry measurements were performed using a VP-ITC microcalorimeter (MicroCal Inc., Studio City, Calif.). […] Thirty injections were performed with a spacing of 240 s and a reference power of 25 μCal/s. Binding isotherms were plotted and analyzed using Origin Software (MicroCal Inc. Studio City, Calif.).

[9] = target: T1, Plk-1 Polo-box Domain (PBD, residues …); experiment: isothermal titration calorimetry [ITC panels]
Experimental: as §1

[10] = target: T2, Cdc25C, mitotically phosphorylated (up-shifted) form, endogenous in nocodazole-arrested HeLa cells (human, UniProt P30307 1-473, limits assumed, extensively phosphorylated at the N-terminus in mitosis, including phosphothreonine at 130); experiment: Ni2+ bead pull-down from nocodazole-arrested transfected HeLa cells, blot α-Cdc25
T2 construct: also called mitotically up-shifted form of Cdc25C; mitotically phosphorylated Cdc25C
T2 sequence (looked up): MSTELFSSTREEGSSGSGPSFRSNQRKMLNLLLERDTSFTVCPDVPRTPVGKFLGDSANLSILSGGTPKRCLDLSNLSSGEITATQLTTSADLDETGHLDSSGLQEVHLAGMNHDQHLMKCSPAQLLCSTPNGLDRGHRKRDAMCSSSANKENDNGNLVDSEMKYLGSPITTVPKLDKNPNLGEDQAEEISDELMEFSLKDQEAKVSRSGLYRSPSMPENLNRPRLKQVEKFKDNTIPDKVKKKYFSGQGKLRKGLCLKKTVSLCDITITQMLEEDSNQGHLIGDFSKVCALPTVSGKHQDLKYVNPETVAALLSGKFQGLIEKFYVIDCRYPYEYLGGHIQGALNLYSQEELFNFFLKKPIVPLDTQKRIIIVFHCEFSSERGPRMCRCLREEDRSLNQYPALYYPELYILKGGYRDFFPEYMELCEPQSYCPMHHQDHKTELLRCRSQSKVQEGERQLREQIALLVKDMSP

binding result [8]: no binding (tested: 150 µM Plk-1 PBD)
Molecule: MAGPMQA[pT]PLNGAKK [PoloBoxtide with Ser at pThr-1 replaced with Ala]

binding result [8]: no binding (tested: 150 µM Plk-1 PBD)
Molecule: MAGPMQC[pT]PLNGAKK [PoloBoxtide with Ser at pThr-1 replaced with Cys]

binding result [8]: no binding (tested: 150 µM Plk-1 PBD)
Molecule: MAGPMQG[pT]PLNGAKK [PoloBoxtide with Ser at pThr-1 replaced with Gly]

binding result [8]: no binding (tested: 150 µM Plk-1 PBD)
Molecule: MAGPMQS[pY]PLNGAKK (built from the optimal peptide) [PoloBoxtide with phosphotyrosine substituted for phosphothreonine]

binding result [8]: no binding (tested: 150 µM Plk-1 PBD)
Molecule: MAGPMQT[pT]PLNGAKK [PoloBoxtide with Ser at pThr-1 replaced with Thr]

More lines, now with the values behind:

Molecule: GST-BRCA1 tandem BRCT domains (residues 1634-1863) (from UniProt P38398 1634-1863)
Kd [1]: 400 nM

Molecule: GST-PTIP tandem BRCT domains (residues 550-757) (from UniProt Q6ZW49 862-1069)
Kd [1]: 280 nM | Kd [2]: 14.3 µM

Molecule: Plk-1 Polo-box Domain (PBD, residues 326-603) (from UniProt P53350 326-603)
fold drop in affinity against PoloBoxtide-optimal [3]: 7 fold | fold increase in Kd against PoloBoxtide-optimal [4]: > 5 fold | Kd [5]: 280 nM

Molecule: PoloBoxtide with Asn substituted for Pro at pThr+1 (peptide)
Kd [6]: 1500 nM

Molecule: PoloBoxtide with phosphoserine substituted for phosphothreonine (peptide)
Kd [6]: 2100 nM

Molecule: PoloBoxtide-optimal, MAGPMQ-S-pT-P-LNGAKK (peptide)
Kd [7]: 280 nM | Kd [6]: 280 nM

B1: PoloBoxtide-7V (peptide)
peptide: MAGPMQV[pT]PLNGAKK
notes: also called phosphopeptide whose serine at pThr-1 was mutated to valine
binding result [9]: no binding (tested: molar ratio about 2.7)

B2: His-Xpress-tagged control Plk1 PBD construct lacking the second Polo-box (residues 326-506) (other)
chain: SIAPSSLDPSNRKPLTVLNKGLENPLPERPREKEEPVVRETGEVVDCHLSDMLQQLHSVNASKPSERGLVRQEEAEDPACIPIFWVSKWVDYSDKYGLGYQLCDNSVGVLFNDSTRLILYNDGDSLQYIERDGTESYLTVSSHPNSLMKKITLLKYFRNYMSEHLLKAGANITPREGDELA
notes: not shown: His-Xpress tag
binding result [10]: no binding
